How the values were obtained:
human c-Met ECD (human) = human c-Met ECD (human) (UniProt P08581); test: SPR (Biacore T100), antibody captured by anti-Fc gamma antibody, c-Met ECD as analyte, 25 C
[1] = molecular target: c-Met receptor on OVCAR-8 cells (human) (UniProt P08581); test: cell-based or functional assay

- Kd (human c-Met ECD (human)): 8.2 nM
- % Internalization of c-Met after 1 hour on OVCAR-8 cells (=100-% antibody on cell surface) [1]: -7%
- % c-Met receptor on OVCAR-8 cell surface measured after 1 hour [1]: 107%
Substance: BsAB02, trivalent bispecific <ErbB-2-c-Met> antibody (full length trastuzumab with one single chain Fab fragment of c-Met 5D5 (humanized) at the C-terminus of the knob heavy chain) (bispecific antibody)

— patent US20100254988A1
